Results reported in the supplement of paper PMC6757056.
± gives the standard deviation of the averaged measurements.

B1: library; a variant is named by its letters at N, in order (parent)
chain: GCUGUCACCGGUGUAUUACCCUAGUGGUCGACCGGUCUGAUGAGUCUNNNNNNAGACGAAACAGC

Key:
hypoxanthine [1] = variants of: B1; assay: FACS-Seq fitted mean relative fluorescence mCherry/BFP without ligand (log10 relative fluorescence); ligand: hypoxanthine (xanthine aptamer); higher = higher reporter protein expression; conditions: HEK293T, ligand present: no
Summary of the method: (§1)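 After lentiviral transduction, HEK293T library cells bearing an mCherry ribozyme-switch reporter and an EF1α-BFP marker were enriched. They were then held for 48 h with or without ligand and sorted by mCherry/BFP into 6 bins, and each bin's genomic DNA was PCR-amplified, barcoded and MiSeq-sequenced. Fluorescence is expressed as a normalized fitted mean: the normal mean of log10(mCherry/BFP) bin counts, scaled to five spiked-in control ribozymes.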

hypoxanthine [2] = variants of: B1; assay: normalized RNA/DNA level with ligand (relative to sTRSVctl = 100) (log10 (% of sTRSVctl)); ligand: hypoxanthine (xanthine aptamer); higher = less ribozyme self-cleavage, higher mRNA level; conditions: ligand concentration (+) RNA-Seq: 5 mM, HEK293T, reporter: mCherry (pCS4076), ligand present: yes
Summary of the method: (§2)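 Ribozyme switch library plasmids linked to reporters were introduced into HEK293T cells at 4 µg per 6-well well, with ligand, if any, added 1 h before. Total RNA was extracted with EDTA 72 h later, reverse-transcribed, amplified, barcoded and sequenced. RNA level was computed from RNA over DNA reads relative to a spiked-in non-cleaving sequence or the top sequences, then scaled and log-transformed. The top set was 25 sequences, values were ×100 and log10, and the cutoff was ≥100 DNA reads.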

hypoxanthine [3] = variants of: B1; assay: normalized RNA/DNA level without ligand (relative to sTRSVctl = 100) (log10 (% of sTRSVctl)); ligand: hypoxanthine (xanthine aptamer); higher = less ribozyme self-cleavage, higher mRNA level; conditions: HEK293T, reporter: mCherry (pCS4076), ligand present: no
Summary of the method: as §2

hypoxanthine [4] = variants of: B1; assay: FACS-Seq fitted mean relative fluorescence mCherry/BFP with ligand (log10 relative fluorescence); ligand: hypoxanthine (xanthine aptamer); ligand concentration (+) FACS-Seq: 5 mM; higher = higher reporter protein expression; conditions: HEK293T, ligand present: yes
Summary of the method: as §1

ACUAAU
FACS-Seq fitted mean (log10) (hypoxanthine [1]): 0.475 ± 0.018 | normalized RNA/DNA level with ligand (log10) (hypoxanthine [2]): 1.92 ± 0.046 | normalized RNA/DNA level without ligand (log10) (hypoxanthine [3]): 1.67 ± 0.058 | FACS-Seq fitted mean (log10) (hypoxanthine [4]): 0.628 ± 0.041

CCUACA
FACS-Seq fitted mean (log10) (hypoxanthine [1]): 0.617 ± 0.024 | normalized RNA/DNA level with ligand (log10) (hypoxanthine [2]): 1.975 ± 0.01 | normalized RNA/DNA level without ligand (log10) (hypoxanthine [3]): 1.9 ± 0.015 | FACS-Seq fitted mean (log10) (hypoxanthine [4]): 0.603 ± 0.01

GCUACC
FACS-Seq fitted mean (log10) (hypoxanthine [1]): 0.407 ± 0.037 | normalized RNA/DNA level with ligand (log10) (hypoxanthine [2]): 1.91 ± 0.07 | normalized RNA/DNA level without ligand (log10) (hypoxanthine [3]): 1.76 ± 0.024 | FACS-Seq fitted mean (log10) (hypoxanthine [4]): 0.599 ± 0.028

GCUACG
FACS-Seq fitted mean (log10) (hypoxanthine [1]): 0.064 ± 0.029 | normalized RNA/DNA level with ligand (log10) (hypoxanthine [2]): 1.95 ± 0.078 | normalized RNA/DNA level without ligand (log10) (hypoxanthine [3]): 1.517 ± 0.015 | FACS-Seq fitted mean (log10) (hypoxanthine [4]): 0.42 ± 0.0069

ACUACG
FACS-Seq fitted mean (log10) (hypoxanthine [1]): 0.398 ± 0.086 | normalized RNA/DNA level with ligand (log10) (hypoxanthine [2]): 1.93 ± 0.071 | normalized RNA/DNA level without ligand (log10) (hypoxanthine [3]): 1.471 ± 0.0099 | FACS-Seq fitted mean (log10) (hypoxanthine [4]): 0.666 ± 0.077

ACUACU
FACS-Seq fitted mean (log10) (hypoxanthine [1]): 0.265 ± 0.031 | normalized RNA/DNA level with ligand (log10) (hypoxanthine [2]): 1.93 ± 0.069 | normalized RNA/DNA level without ligand (log10) (hypoxanthine [3]): 1.821 ± 0.01 | FACS-Seq fitted mean (log10) (hypoxanthine [4]): 0.443 ± 0.046

UCUAGA
FACS-Seq fitted mean (log10) (hypoxanthine [1]): 0.927 ± 0.07 | normalized RNA/DNA level with ligand (log10) (hypoxanthine [2]): 1.91 ± 0.028 | normalized RNA/DNA level without ligand (log10) (hypoxanthine [3]): 1.69 ± 0.056 | FACS-Seq fitted mean (log10) (hypoxanthine [4]): 0.0154 ± 0.086

ACUAGA
FACS-Seq fitted mean (log10) (hypoxanthine [1]): 0.305 ± 0.02 | normalized RNA/DNA level with ligand (log10) (hypoxanthine [2]): 1.919 ± 0.0065 | normalized RNA/DNA level without ligand (log10) (hypoxanthine [3]): 1.73 ± 0.032 | FACS-Seq fitted mean (log10) (hypoxanthine [4]): 0.429 ± 0.0044

UCUAGC
FACS-Seq fitted mean (log10) (hypoxanthine [1]): 0.834 ± 0.0096 | normalized RNA/DNA level with ligand (log10) (hypoxanthine [2]): 1.95 ± 0.023 | normalized RNA/DNA level without ligand (log10) (hypoxanthine [3]): 1.85 ± 0.032 | FACS-Seq fitted mean (log10) (hypoxanthine [4]): 0.666 ± 0.062

ACUAGG
FACS-Seq fitted mean (log10) (hypoxanthine [1]): 0.706 ± 0.049 | normalized RNA/DNA level with ligand (log10) (hypoxanthine [2]): 1.8318 ± 0.00012 | normalized RNA/DNA level without ligand (log10) (hypoxanthine [3]): 1.424 ± 0.009 | FACS-Seq fitted mean (log10) (hypoxanthine [4]): 0.657 ± 0.03

CCUAUA
FACS-Seq fitted mean (log10) (hypoxanthine [1]): 0.827 ± 0.019 | normalized RNA/DNA level with ligand (log10) (hypoxanthine [2]): 1.945 ± 0.016 | normalized RNA/DNA level without ligand (log10) (hypoxanthine [3]): 1.83 ± 0.029 | FACS-Seq fitted mean (log10) (hypoxanthine [4]): 0.508 ± 0.074

ACUAUA
FACS-Seq fitted mean (log10) (hypoxanthine [1]): 0.701 ± 0.099 | normalized RNA/DNA level with ligand (log10) (hypoxanthine [2]): 1.89 ± 0.039 | normalized RNA/DNA level without ligand (log10) (hypoxanthine [3]): 1.823 ± 0.017 | FACS-Seq fitted mean (log10) (hypoxanthine [4]): 0.693 ± 0.019

UCUAUC
FACS-Seq fitted mean (log10) (hypoxanthine [1]): 0.701 ± 0.082 | normalized RNA/DNA level with ligand (log10) (hypoxanthine [2]): 2.046 ± 0.019 | normalized RNA/DNA level without ligand (log10) (hypoxanthine [3]): 2 ± 0.023 | FACS-Seq fitted mean (log10) (hypoxanthine [4]): 0.59 ± 0.08

GCUAUG
FACS-Seq fitted mean (log10) (hypoxanthine [1]): 0.086 ± 0.067 | normalized RNA/DNA level with ligand (log10) (hypoxanthine [2]): 1.86 ± 0.025 | normalized RNA/DNA level without ligand (log10) (hypoxanthine [3]): 1.36 ± 0.065 | FACS-Seq fitted mean (log10) (hypoxanthine [4]): 0.318 ± 0.022

UCUAUG
FACS-Seq fitted mean (log10) (hypoxanthine [1]): 0.305 ± 0.056 | normalized RNA/DNA level with ligand (log10) (hypoxanthine [2]): 1.906 ± 0.008 | normalized RNA/DNA level without ligand (log10) (hypoxanthine [3]): 1.74 ± 0.019 | FACS-Seq fitted mean (log10) (hypoxanthine [4]): 0.426 ± 0.018

GCUAUU
FACS-Seq fitted mean (log10) (hypoxanthine [1]): 0.263 ± 0.011 | normalized RNA/DNA level with ligand (log10) (hypoxanthine [2]): 1.927 ± 0.011 | normalized RNA/DNA level without ligand (log10) (hypoxanthine [3]): 1.89 ± 0.004 | FACS-Seq fitted mean (log10) (hypoxanthine [4]): 0.412 ± 0.06

GCUCAA
FACS-Seq fitted mean (log10) (hypoxanthine [1]): 0.9407 ± 0.005 | normalized RNA/DNA level with ligand (log10) (hypoxanthine [2]): 1.92 ± 0.041 | normalized RNA/DNA level without ligand (log10) (hypoxanthine [3]): 1.71 ± 0.076 | FACS-Seq fitted mean (log10) (hypoxanthine [4]): 0.495 ± 0.11

UCUCAG
FACS-Seq fitted mean (log10) (hypoxanthine [1]): 0.173 ± 0.045 | normalized RNA/DNA level with ligand (log10) (hypoxanthine [2]): 1.82 ± 0.061 | normalized RNA/DNA level without ligand (log10) (hypoxanthine [3]): 1.34 ± 0.038 | FACS-Seq fitted mean (log10) (hypoxanthine [4]): 0.474 ± 0.094
